For test [1], the target named is T1, scHGF β-chain (zymogen-like HGF β, residues Asn479 to Ser728, R494E, C-terminal His-tag) (human, UniProt P14210 479-728).
T1 construct: Expressed in insect cells; also called zHGF β; zymogen-like form of HGF β; not shown: C-terminal His-tag
The experiment in a line: activity-based phage sorting: library with 0.5 µM scHGF β in solution, complex captured on a Met Sema-PSI coated plate; the clones as a group are plotted in FIG. 9B. How it is done: Where activity-based sorting was conducted, the phage library was incubated in solution with 0.5 μM scHGF β at 4° C. then the mixture was applied to a Maxi-Sorp plate coated with 5 μg/ml Met Sema-PSI ECD protein for capture of activated complex. To analyze phage clones from the activity-based sorting two ELISAs were carried out separately to analyze binding and activity. The first ELISA measured direct phage binding to wells coated with 5 μg/ml scHGF β relative to a BSA control. The second activity ELISA measured phage binding to wells coated with 5 μg/ml Met in the presence or absence (negative control) of 0.5 μM scHGF β in solution. The data from these two ELISAs were plotted with direct binding on the y-axis and Met capture (activity) on the x-axis.
The new 15-mer ZAP-gene VIII phage library contained two main regions that were preferentially shielded from hard-randomization, the N-terminal motif which inserted into the activation pocket and a portion of the reverse turn motif that packs against the protein surface in the bound state (FIG. 8A). […] Phage clones from the solution sort and activity-based sort were sequenced and subjected to a 2-dimensional ELISA analysis, where the clones were analyzed for (i) direct scHGF β binding and (ii) the ability of phage clones to be captured by Met only in the presence of scHGF β.

Test [2] concerns the target scHGF (non-cleavable form of full-length pro-HGF with a mutated cleavage site) (human, UniProt P14210 32-728). The experiment in a line: cell-based or functional assay.
The target of test [3] is T1, scHGF β-chain (zymogen-like HGF β, …). The experiment in a line: BLI scHGF β activation/Met binding assay.
For test [4] the target is unchanged. Description: BLI, peptide-dependent activation of zHGF β binding to surface immobilized Met ECD. How it is done: (§1) Met binding assays were carried out utilizing the OctetRed™ biolayer interferometry instrument (ForteBio, Inc.) as reported previously (Landgraf, K. E. et al. (2010) J Biol Chem 285: 40362-72). Biotinylated Met ECD (Sema/PSI-AviTag) was captured on the surface of streptavidin optical sensor tips (SA biosensors, ForteBio, Inc.), and transferred into buffer containing 0.5 μM scHGF β-chain variants in the presence of increasing concentration of indicated peptides. Association and dissociation reactions were monitored to ensure reversible binding between scHGF β and Met. Binding was quantified using the steady-state levels of surface response from the association reaction. Equilibrium constants were derived by least squares fitting of the titration data to a single-site binding equation. Errors reported are ±stdev of n=3 independent experiments.

For test [5] the target is unchanged. The experiment in a line: BLI (OctetRed) scHGF β activation/Met binding assay: peptide titrated into 0.5 µM scHGF β over biotinylated Met Sema/PSI on streptavidin tips; steady-state single-site fit. How it is done:
as §1
Based on the finding that the consensus ZAPs contain features consistent with binding and inserting into the activation pocket, several related peptides were synthesized and utilized in a previously established scHGF β activation assay to assess their affinities and ability to active Met binding (Landgraf, K. E. et al. (2010) J Biol Chem 285: 40362-72). Since scHGF β can only weakly interact with the Met Sema-PSI domain compared to the active HGF β form, biolayer interferometry was used in the activation assay to measure the ability of a peptide to directly enhance the binding affinity of scHGF β to a streptavidin sensor surface coated with biotinylated Met (Landgraf, K. E. et al. (2010) J Biol Chem 285: 40362-72). Thus, titration of an activator peptide should result in a significant increase in the surface response signal due to enhanced scHGF β binding to Met.

Test [6] has the same target. The experiment in a line: biolayer interferometry: biotinylated Met Sema/PSI on streptavidin tips, 0.5 µM scHGF β in solution, peptide titrated; steady-state surface response of scHGF β binding to Met. On the procedure: as §1
Based on the finding that the consensus ZAPs contain features consistent with binding and inserting into the activation pocket, several related peptides were synthesized and utilized in a previously established scHGF β activation assay to assess their affinities and ability to active Met binding (Landgraf, K. E. et al. (2010) J Biol Chem 285: 40362-72). […]
In general terms: In BLI a coated tip is dipped into the sample, and binding shifts an interference pattern.

Bridges are numbered along the chain shown (N, C = ends). Where no end group is shown, it is not given here. Bounds are passed on as bounds.

T1 sequence (P14210 479-728 R494E): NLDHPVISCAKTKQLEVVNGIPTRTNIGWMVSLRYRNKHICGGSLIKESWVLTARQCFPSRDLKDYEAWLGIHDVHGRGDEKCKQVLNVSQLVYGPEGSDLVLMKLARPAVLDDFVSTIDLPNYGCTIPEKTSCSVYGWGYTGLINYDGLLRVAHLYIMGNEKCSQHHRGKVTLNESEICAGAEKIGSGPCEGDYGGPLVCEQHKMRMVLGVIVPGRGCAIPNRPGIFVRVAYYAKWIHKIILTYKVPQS
Chain of scHGF (non-cleavable form of full-length pro-HGF with a mutated cleavage site) (P14210 32-728 limits assumed, change not shown): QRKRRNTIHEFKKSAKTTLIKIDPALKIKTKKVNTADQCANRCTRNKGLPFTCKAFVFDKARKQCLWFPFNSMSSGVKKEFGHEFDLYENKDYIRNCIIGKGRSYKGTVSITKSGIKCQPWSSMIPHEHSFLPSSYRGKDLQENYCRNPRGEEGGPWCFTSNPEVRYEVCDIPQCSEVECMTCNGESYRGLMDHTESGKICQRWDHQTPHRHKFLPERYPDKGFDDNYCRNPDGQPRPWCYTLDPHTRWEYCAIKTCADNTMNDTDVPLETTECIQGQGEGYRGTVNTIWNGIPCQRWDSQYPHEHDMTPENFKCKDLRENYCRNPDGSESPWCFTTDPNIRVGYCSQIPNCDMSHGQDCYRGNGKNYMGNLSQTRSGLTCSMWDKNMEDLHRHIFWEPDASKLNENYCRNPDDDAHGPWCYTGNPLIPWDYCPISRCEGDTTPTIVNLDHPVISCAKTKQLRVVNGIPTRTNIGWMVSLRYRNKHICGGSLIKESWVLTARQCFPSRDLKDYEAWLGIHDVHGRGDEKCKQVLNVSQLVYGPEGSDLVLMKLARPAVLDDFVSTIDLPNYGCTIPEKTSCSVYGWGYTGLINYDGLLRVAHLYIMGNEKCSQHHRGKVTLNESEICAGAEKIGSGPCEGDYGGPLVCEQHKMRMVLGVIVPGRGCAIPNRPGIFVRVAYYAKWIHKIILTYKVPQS

B1: ZAP.03 (peptide)
15-mer peptide displayed on the N-terminus of M13 gene VIII: IIGGCPYWMDREECI
modifications: disulfide 5-14
B1: in test [1], the binding result is recorded as “binds”.

B2: IVGG.14 peptide (peptide)
peptide: IVGGYPWWMDV-NH2
notes: Synthetic peptide; also called possibly ZAP.14
As a reminder, the Kd is the constant that tells how readily two partners part at equilibrium. With B2, the “EC50, BxPC-3 cell survival assay, peptide titrated with scHGF” value in test [2] is ~20 µM. The “fold more potent than the peptides derived from the native N-terminus of the β-chain of HGF” value in test [3] was ~60 fold. In test [4], the “fold improvement over previous activators” value is > 90 fold. In addition, the affinity in test [5], expressed as Kd, was 34 µM.

B3: IVGD.14 peptide (peptide)
peptide: IVGDYPWWMDV-NH2
Turning to B3, in test [6], the binding result is given as “no binding”.

B4: IVDD.14 peptide (peptide)
peptide: IVDDYPWWMDV-NH2
For the molecule B4, in test [6], the binding result is reported as “no binding (tested: about 125 µM)”.

Values taken from patent US20130096072A1 (Genentech, published 2013).
